Experimental findings from patent US20040001839A1 (published 2004) are described below.

The Kd is the free concentration of one partner at which half of the binding sites on the other are occupied at equilibrium, for simple one-to-one binding.

Numbering of substitutions follows the chain as printed. No end group written: not given here. *: point of attachment. sulfate = O=S(=O)(O)*

T1: PSGL-1 on KG-1 cells (human, UniProt Q14242 42-412, sulfated tyrosine residues at the N-terminal site)
T1 construct: whole, on cells; results on KG-1 cells, lysates and membrane fractions are written against this molecule; also called CD162; P-Selectin Glycoprotein Ligand-1
T1 sequence (looked up): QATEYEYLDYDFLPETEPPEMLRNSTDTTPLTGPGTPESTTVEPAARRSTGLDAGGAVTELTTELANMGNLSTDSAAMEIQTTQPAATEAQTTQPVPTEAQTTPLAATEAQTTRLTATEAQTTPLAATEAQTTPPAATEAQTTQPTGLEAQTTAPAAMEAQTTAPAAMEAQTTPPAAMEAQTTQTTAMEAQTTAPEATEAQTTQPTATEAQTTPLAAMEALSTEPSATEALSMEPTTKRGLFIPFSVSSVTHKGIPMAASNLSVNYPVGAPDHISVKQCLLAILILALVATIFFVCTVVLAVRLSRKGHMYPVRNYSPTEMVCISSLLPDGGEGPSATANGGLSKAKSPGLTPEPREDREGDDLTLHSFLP

T2: Lumican (human, UniProt P51884 19-338, contains sulfated tyrosine residues)
T2 construct: The ~80 kDa band was identified as CC4 and lumican together; also called human lumican; H P-ligand 2
T2 sequence (looked up): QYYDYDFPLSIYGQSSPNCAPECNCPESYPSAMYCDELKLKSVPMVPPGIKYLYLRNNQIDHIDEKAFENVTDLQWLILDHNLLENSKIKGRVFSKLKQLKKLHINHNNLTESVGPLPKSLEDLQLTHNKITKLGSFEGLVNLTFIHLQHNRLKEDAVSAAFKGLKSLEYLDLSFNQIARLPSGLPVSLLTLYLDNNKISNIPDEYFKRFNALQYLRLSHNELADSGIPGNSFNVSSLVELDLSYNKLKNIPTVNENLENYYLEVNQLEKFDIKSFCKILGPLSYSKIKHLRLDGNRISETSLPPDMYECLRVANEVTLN

B1: Y1 scFv (scFv)
scFv: EVQLVESGGGVVRPGGSLRLSCAASGFTFDDYGMSWVRQAPGKGLEWVSGINWNGGSTGYADSVKGRFTISRDNAKNSLYLQMNSLRAEDTAVYYCARMRAPVIWGQGTLVTVSRGGGGSGGGGSGGGGSSELTQDPAVSVALGQTVRITCQGDSLRSYYASWYQQKPGQAPVLVIYGKNNRPSGIPDRFSGSSSGNTASLTITGAQAEDEADYYCNSRDSSGNHVVFGGGTKLTVLGAAAEQKLISEEDLNGAA
notes: Fully human scFv from the Nissim I phage library; Used biotin-labelled in most Western blots; also called scFv Y1; scFv-Y1
B2: Y17 scFv (scFv)
scFv: B1 scFv with M99L, R100T, A101H, V103Y, I104F
notes: Human scFv selected on platelets in the same way as Y1; also called biotin labeled-Y17
B3: F-Y*Y* (peptide)
peptide: VRPEHPAETEY(sulfate)ESLY(sulfate)PEDDL
notes: also called Fibrinogen-γ-prime chain peptide, sulfated
B4: EGR (peptide)
peptide: REEGRQHFFLLEGRSSYS
notes: also called negative control peptide
B5: Y1-IgG (antibody, V domains shown)
VH: EVQLVESGGGVVRPGGSLRLSCAASGFTFDDYGMSWVRQAPGKGLEWVSGINWNGGSTGYADSVKGRFTISRDNAKNSLYLQMNSLRAEDTAVYYCARMRAPVIWGQGTLVTVSR
VL: SELTQDPAVSVALGQTVRITCQGDSLRSYYASWYQQKPGQAPVLVIYGKNNRPSGIPDRFSGSSSGNTASLTITGAQAEDEADYYCNSRDSSGNHVVFGGGTKLTVL
B6: F-YY (peptide)
peptide: VRPEHPAETEYESLYPEDDL
notes: also called Fibrinogen-γ-prime chain peptide, non-sulfated
B7: P-2-S (peptide)
peptide: TDLY(sulfate)DY(sulfate)Y(sulfate)PEEDTE
notes: also called residues 273-285 of GPIbα, sulfated
B8: P-3-S (peptide)
peptide: GDEGDTDLY(sulfate)DY(sulfate)Y(sulfate)P
notes: also called residues 268-280 of GPIbα, sulfated
B9: Y1-cys-kak (cysteine dimer) (other)
scFv 1: MEVQLVESGGGVVRPGGSLRLSCAASGFTFDDYGMSWVRQAPGKGLEWVSGINWNGGSTGYADSVKGRFTISRDNAKNSLYLQMNSLRAEDTAVYYCARMRAPVIWGQGTLVTVSRGGGGSGGGGSGGGGSSELTQDPAVSVALGQTVRITCQGDSLRSYYASWYQQKPGQAPVLVIYGKNNRPSGIPDRFSGSSSGNTASLTITGAQAEDEADYYCNSRDSSGNHVVFGGGTKLTVLGGGGCKAK
scFv 2: B9 scFv 1
modifications: Interchain disulfide between Cys 243 of chain 1 and Cys 243 of chain 2; in the FACS of paragraph 474 the dimer also carried FITC.
notes: also called Y1-cys-kak scFv dimer; S-S Y1 dimer
B10: CONY1 (scFv)
scFv: EVQLVESGGGVVRPGGSLRLSCAASGFTFDDYGMSWVRQAPGKGLEWVSGINWNGGSTGYADSVKGRFTISRDNAKNSLYLQMNSLRAEDTAVYYCARMRAPVIWGQGTLVTVSRGGGGSGGGGSGGGGSSELTQDPAVSVALGQTVRITCQGDSLRSYYASWYQQKPGQAPVLVIYGKNNRPSGIPDRFSGSSSGNTASLTITGAQAEDEADYYCNSRDSSGNHVVFGGGTKLTVLGAAAKAK
notes: also called Y1-kak; Y1 scFv monomer

The target in assay [1] is T1, PSGL-1 on KG-1 cells. Kind of assay: Western blot of RP-HPLC KG-1 membrane fraction after O-Sialo glycoprotein endopeptidase, 30' at 37° C.
The next assay addresses T2, Lumican. Kind of assay: Western blot of human plasma proteins.
In assay [2] the target is T1, PSGL-1 on KG-1 cells. The assay can be described thus: FACS on KG-1 cells.
In assay [3] the target is T3, GPIbα small N-terminal 42 kDa fragment (His1-Leu275) (human, UniProt P07359 17-291).
T3 construct: also called smaller N-terminal fragment (cathepsin G)
The assay can be described thus: Western blot of cathepsin G digested glycocalicin.
Source text: Glycocalicin and glycocalicin fragments generated by cathepsin G digestion were separated on SDS-polyacrylamide gels and transferred to nitrocellulose.

Assay [4] deals with B1. The assay can be described thus: competition ELISA: peptide (1, 10, 100 µM) preincubated with scFv Y1, binding to immobilized glycocalicin. (An ELISA detects its analyte on a solid surface through an enzyme-linked reagent.)
The target of assay [5] is B1. Kind of assay: competitive FACS: Y1-scFv 1 µg preincubated with peptide at 200 µM, residual binding to washed platelets.
Procedure: (§1) In addition, FACS analysis using washed platelets was carried out. […] A polystyrene microtiter maxisorb plate was coated with (a) purified glycocalicin or (b) washed platelets. […] The plate was then incubated with rabbit anti-scFv followed by addition of anti rabbit-HRP (horse radish peroxidase) and HRP substrate. […] The optical density was measured at A₄₀₅. Each sample was assayed in duplicate, and the average was calculated.
The target of assay [6] is B1. Kind of assay: competitive FACS: Y1-scFv 1 µg preincubated with peptide at 2.5 µM, residual binding to washed platelets.
Procedure: as §1
In assay [7] the target is B1. Kind of assay: competition ELISA: Y1 0.25 µg/well preincubated with peptide at 0.5 µM, residual binding to glycocalicin.
For assay [8], the target named is B1. Kind of assay: competition ELISA: Y1 0.25 µg/well preincubated with peptide at 25 µM, residual binding to glycocalicin.
Assay [9] has as its target B1. Kind of assay: competition ELISA: Y1 0.25 µg/well preincubated with peptide at 2.5 µM, residual binding to glycocalicin.
In assay [10] the target is T1, PSGL-1 on KG-1 cells. The assay can be described thus: radio receptor binding assay on KG-1 cells, tracer 125I-Y1-IgG 2 ng/tube.
Procedure: (§2) The assay tubes contained 5×10⁶ KG-1 cells per 0.2 ml and a labeled tracer with varying amounts of unlabeled competitor, in PBS+0.1% BSA, pH 7.4. After one hour incubation with agitation at 4° C., the cells were thoroughly washed with cold buffer and taken for radioactivity counting.
Assay [11] has as its target T1, PSGL-1 on KG-1 cells. The assay can be described thus: radio receptor assay on KG-1 cells, dimer as competitor.
In assay [12] the target is T1, PSGL-1 on KG-1 cells. Kind of assay: FACS on KG-1 cells, FITC-labeled.
The target in assay [13] is T1, PSGL-1 on KG-1 cells. Kind of assay: radioreceptor assay, ELISA or FACS; KG-1 cells.
The target in assay [14] is T1, PSGL-1 on KG-1 cells. The assay can be described thus: second radio receptor binding assay on KG-1 cells, labeled tracer 100 ng/tube.
Procedure: as §2

T3 sequence (P07359 17-291 limits assumed): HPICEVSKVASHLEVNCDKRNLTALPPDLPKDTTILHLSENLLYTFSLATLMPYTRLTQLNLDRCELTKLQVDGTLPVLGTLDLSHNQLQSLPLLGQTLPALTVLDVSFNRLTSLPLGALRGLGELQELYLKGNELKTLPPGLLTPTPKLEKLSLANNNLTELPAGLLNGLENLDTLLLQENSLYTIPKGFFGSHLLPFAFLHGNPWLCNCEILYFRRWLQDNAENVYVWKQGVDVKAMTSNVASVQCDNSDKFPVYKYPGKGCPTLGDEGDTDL

Consider B1, for which the binding result with PSGL-1 on KG-1 cells [1] and with Lumican was “binds” throughout.

For the molecule B2, the binding result with PSGL-1 on KG-1 cells [2] is on record as “binds”; in [3], “no binding”.

For the molecule B3, the binding result with Y1 scFv [4] is reported as “no binding (tested: 100 µM)”.

For B4, the “Residual Binding of Y1 (% of baseline) (Geo Mean)” value with Y1 scFv [5] is 119%; with Y1 scFv [6] it was 96%. Besides, the “Residual Binding of Y1 (% of baseline)” value with Y1 scFv [7] turned out to be 121%; with Y1 scFv [8], 89%; with Y1 scFv [9] it was 100%.

In the case of B5, the Kd with PSGL-1 on KG-1 cells [10] is roughly 20 nM.

On to B6, for which the binding result in the assay with Y1 scFv [4] was “no binding (tested: 100 µM)”.

As to B7, the “Residual Binding of Y1 (% of baseline) (Geo Mean)” value with Y1 scFv [5] was found to be 7%; with Y1 scFv [6] it was 61%. The figures for the “Residual Binding of Y1 (% of baseline)” value in the assay with Y1 scFv [7], with Y1 scFv [8] and in the assay with Y1 scFv [9] were 78%, 15% and 52%, respectively.

On to B8, for which the results for the “Residual Binding of Y1 (% of baseline) (Geo Mean)” value with Y1 scFv [5] and in the assay with Y1 scFv [6] were 26% and 82%, respectively. For the same molecule, the “Residual Binding of Y1 (% of baseline)” value in the assay with Y1 scFv [7] was determined as 80%; with Y1 scFv [8], 21%; in the assay with Y1 scFv [9], 67%.

In the case of B9, the “fold more efficient than the monomer” value with PSGL-1 on KG-1 cells [11] was 30 fold. Also, in the assay with PSGL-1 on KG-1 cells [12], the “fold less material than the monomer” value stood at 10 fold. Further, the “fold higher binding than the Y1 scFv monomer” value with PSGL-1 on KG-1 cells [13] was no less than 20 fold. For the same molecule, in the assay with PSGL-1 on KG-1 cells [14], the Kd was roughly 50 nM and the “fold higher affinity than CONY1” value was 20 fold. For the same molecule, in the assay with PSGL-1 on KG-1 cells [10], the Kd is roughly 40 nM, the “fold higher affinity than CONY1” value turned out to be 30 fold and the “fold lower affinity than the full Y1 antibody” value came to 2 fold.

For B10, the Kd in the assay with PSGL-1 on KG-1 cells [14] was roughly 1000 nM.
